# Reference: US5891663
# Biological target: precursor of the polypeptide that induces IFN-γ production in immunocompetent cells (human)
substance,measurement,value
interleukin-1β converting enzyme (from UniProt P29466),"conversion of the precursor into the active polypeptide; IFN-γ content (IU/ml) induced in KG-1 cells by the reaction mixture, with Western blot time course",4000 IU/ml
